# B1: CPEB3 Ribozyme (parent)
# chain: UAACAGGGGGCCACAGCAGAAGCGUUCACGUCGCAGCCCCUGUCAGAUUCUGGUGAAUCUGCGAAUUCUGCUGUAUAUCUC
# Variants of: B1
# Assay: self-cleavage, relative activity (ratio to wild type); higher = more cleavage; in vitro, sequencing
# Procedure, shortened: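 CPEB3 self-cleaving ribozyme mutant libraries were made by rounds of error-prone PCR, barcoded, and transcribed in vitro with T7 RNA polymerase for 5 hours at 37°C. Cleavage occurred during transcription and a 15 min DNase I step before EDTA stop. RNAs were reverse transcribed with template switching and Illumina-sequenced, with DNA sequencing mapping barcodes to variants. Relative activity is the variant's cleaved/total read fraction divided by wild type's (minimum 5 reads), averaged across three batches.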
row,Variant,self-cleavage
1,UAACAGGGGGCCACAGCAGAAGCGUUCACGUCGCAGCCCCUGCCAGAUUCUGGUGAAUCUGGGAAUUCUGCUGUAUAUCUC [U43C C62G],0.21
2,UAACAGGGGGCCACAGCAGAAGCGUUCACGUCGCAGCCCCUGCCAGAUUCUGGUGAAUCUGAGAAUUCUGCUGUAUAUCUC [U43C C62A],0.31
3,UAACAGGGGGCCACAGCAGAAGCGUUCACGUCGCAGCCCCUGCCAGAUUCUGGUGAAUCUGUGAAUUCUGCUGUAUAUCUC [U43C C62U],0.3
4,UAACAGGGGGCCACAGCAGAAGCGUUCACGUCGCAGCCCCUGCCACAUUCUGGUGAAUCUGCGAAUUCUGCUGUAUAUCUC [U43C G46C],0.16
5,UAACAGGGGGCCACAGCAGAAGCGUUCACGUCGCAGCCCCUGCCAAAUUCUGGUGAAUCUGCGAAUUCUGCUGUAUAUCUC [U43C G46A],0.22
6,UAACAGGGGGCCACAGCAGAAGCGUUCACGUCGCAGCCCCUGACAGAUUCUGGUGAAUCUGCGAAUUCUGCAGUAUAUCUC [U43A U72A],0.71
7,UAACAGGGGGCCACAGCAGAAGCGUUCACGUCGCAGCCCCUGACAGAUUCUGGUGAAUCUGCGAAUUCUGCGGUAUAUCUC [U43A U72G],1.02
8,UAACAGGGGGCCACAGCAGAAGCGUUCACGUCGCAGCCCCUGACAGAUUCUGGUGAAUCUGCGAAUUCUGCCGUAUAUCUC [U43A U72C],1.17
9,UAACAGGGGGCCACAGCAGAAGCGUUCACGUCGCAGCCCCUGCCAGAUUCUGGUGAAUCUGCGAAUUGUGCUGUAUAUCUC [U43C C68G],0.11
10,UAACAGGGGGCCACAGCAGAAGCGUUCACGUCGCAGCCCCUGCCAGAUUCUGGUGAAUCUGCGAAUUUUGCUGUAUAUCUC [U43C C68U],0.32
11,UAACAGGGGGCCACAGCAGAAGCGUUCACGUCGCAGCCCCUGCCAGAUUCUGGUGAAUCUGCGAAUUAUGCUGUAUAUCUC [U43C C68A],0.28
12,UAACAGGGGGCCACAGCAGAAGCGUUCACGUCGCAGCCCCUGCCAGAUUCUGGUGAUUCUGCGAAUUCUGCUGUAUAUCUC [U43C A57U],0.22
13,UAACAGGGGGCCACAGCAGAAGCGUUCACGUCGCAGCCCCUGCCAGAUUCUGGUGAGUCUGCGAAUUCUGCUGUAUAUCUC [U43C A57G],0.3
14,UAACAGGGGGCCACAGCAGAAGCGUUCACGUCGCAGCCCCUGACAGAUUCUGGUGAAUCUGCGAAAUCUGCUGUAUAUCUC [U43A U66A],0.69
15,UAACAGGGGGCCACAGCAGAAGCGUUCACGUCGCAGCCCCUGACAGAUUCUGGUGAAUCUGCGAACUCUGCUGUAUAUCUC [U43A U66C],0.53
16,UAACAGGGGGCCACAGCAGAAGCGUUCACGUCGCAGCCCCUGCGAGAUUCUGGUGAAUCUGCGAAUUCUGCUGUAUAUCUC [U43C C44G],0.09
17,UAACAGGGGGCCACAGCAGAAGCGUUCACGUCGCAGCCCCUGCUAGAUUCUGGUGAAUCUGCGAAUUCUGCUGUAUAUCUC [U43C C44U],0.38

row,Variant,self-cleavage
1,UAACAGGGGGCCACAGCAGAAGCGUUCACGUCGCAGCCCCUGACAGAUUCUGGAGAAUCUGCGAAUUCUGCUGUAUAUCUC [U43A U54A],1.25
2,UAACAGGGGGCCACAGCAGAAGCGUUCACGUCGCAGCCCCUGACAGAUUCUGGCGAAUCUGCGAAUUCUGCUGUAUAUCUC [U43A U54C],1.19
3,UAACAGGGGGCCACAGCAGAAGCGUUCACGUCGCAGCCCCUGACAGAUUCUGGUGAAUCUGCGAAUUCUGCUGAAUAUCUC [U43A U74A],1.35
4,UAACAGGGGGCCACAGCAGAAGCGUUCACGUCGCAGCCCCUGACAGAUUCUGGUGAAUCUGCGAAUUCUGCUGCAUAUCUC [U43A U74C],1.24
5,UAACAGGGGGCCACAGCAGAAGCGUUCACGUCGCAGCCCCUGCCAGAUUCUGGUGUAUCUGCGAAUUCUGCUGUAUAUCUC [U43C A56U],0.26
6,UAACAGGGGGCCACAGCAGAAGCGUUCACGUCGCAGCCCCUGCCAGAUUCUGGUGCAUCUGCGAAUUCUGCUGUAUAUCUC [U43C A56C],0.18
7,UAACAGGGGGCCACAGCAGAAGCGUUCACGUCGCAGCCCCUGCCAGAUUCUGGUGGAUCUGCGAAUUCUGCUGUAUAUCUC [U43C A56G],0.33
8,UAACAGGGGGCCACAGCAGAAGCGUUCACGUCGCAGCCCCUGCCAGAUUCUGGUGAAUCUGCGAAUUCUGCUGUAUAUCUC [U43C],0.67
9,UAACAGGGGGCCACAGCAGAAGCGUUCACGUCGCAGCCCCUGCCAGAUUCUGGUGAAUUUGCGAAUUCUGCUGUAUAUCUC [U43C C59U],0.52
10,UAACAGGGGGCCACAGCAGAAGCGUUCACGUCGCAGCCCCUGCCAGAUUCUGGUGAAUAUGCGAAUUCUGCUGUAUAUCUC [U43C C59A],0.12
11,UAACAGGGGGCCACAGCAGAAGCGUUCACGUCGCAGCCCCUGCCAGAUUUUGGUGAAUCUGCGAAUUCUGCUGUAUAUCUC [U43C C50U],0.24
12,UAACAGGGGGCCACAGCAGAAGCGUUCACGUCGCAGCCCCUGCCAGAUUAUGGUGAAUCUGCGAAUUCUGCUGUAUAUCUC [U43C C50A],0.31
13,UAACAGGGGGCCACAGCAGAAGCGUUCACGUCGCAGCCCCUGCCAGAUUCUGGUGAAUCUGCGUAUUCUGCUGUAUAUCUC [U43C A64U],0.29
14,UAACAGGGGGCCACAGCAGAAGCGUUCACGUCGCAGCCCCUGCCAGAUUCUGGUGAAUCUGCGGAUUCUGCUGUAUAUCUC [U43C A64G],0.51
15,UAACAGGGGGCCACAGCAGAAGCGUUCACGUCGCAGCCCCUGCCAGCUUCUGGUGAAUCUGCGAAUUCUGCUGUAUAUCUC [U43C A47C],0.06
16,UAACAGGGGGCCACAGCAGAAGCGUUCACGUCGCAGCCCCUGCCAGUUUCUGGUGAAUCUGCGAAUUCUGCUGUAUAUCUC [U43C A47U],0.39
17,UAACAGGGGGCCACAGCAGAAGCGUUCACGUCGCAGCCCCUGCCAGGUUCUGGUGAAUCUGCGAAUUCUGCUGUAUAUCUC [U43C A47G],0.58
